The numbers were not newly measured in publication PMC8469563, which cites them from elsewhere.

The target of the data set is C1q (Homo sapiens) (UniProt P02745).
UniProt P02745, sequence (P02745 23-245, chain 1 of 3): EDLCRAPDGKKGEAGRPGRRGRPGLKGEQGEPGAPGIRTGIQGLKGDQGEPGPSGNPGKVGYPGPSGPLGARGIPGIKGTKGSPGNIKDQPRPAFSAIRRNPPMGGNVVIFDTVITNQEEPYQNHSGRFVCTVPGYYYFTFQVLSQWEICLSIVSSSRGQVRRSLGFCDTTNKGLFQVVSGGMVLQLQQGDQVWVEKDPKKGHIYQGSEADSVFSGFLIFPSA
UniProt P02745, sequence (P02746 28-253, chain 2 of 3, further chain): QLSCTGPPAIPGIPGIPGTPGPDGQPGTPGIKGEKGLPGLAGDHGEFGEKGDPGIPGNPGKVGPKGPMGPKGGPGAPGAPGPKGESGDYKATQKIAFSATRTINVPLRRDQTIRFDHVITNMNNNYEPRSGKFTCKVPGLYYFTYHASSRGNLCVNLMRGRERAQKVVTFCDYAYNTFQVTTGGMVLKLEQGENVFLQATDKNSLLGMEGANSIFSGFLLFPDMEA
UniProt P02745, sequence (P02747 29-245, chain 3 of 3, further chain): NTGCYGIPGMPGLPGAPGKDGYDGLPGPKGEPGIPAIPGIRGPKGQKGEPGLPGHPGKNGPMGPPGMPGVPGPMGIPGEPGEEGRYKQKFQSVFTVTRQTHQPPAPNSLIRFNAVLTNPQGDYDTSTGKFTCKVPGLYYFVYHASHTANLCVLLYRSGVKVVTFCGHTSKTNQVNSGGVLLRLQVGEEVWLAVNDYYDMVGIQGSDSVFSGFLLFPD

The Kd is the concentration at which binding is half-saturated. For the substance HMGB1 (from UniProt P09429), the Kd was 0.2 µM.
